Legend:
Assay in all cases: single-molecule speckle (SiMS) TIRF imaging of EGFP-fused probe (cell lysate) on fixed, permeabilized XTC cells; exponential fit of speckle lifetimes
[1] = target: microtubule in fixed and permeabilized Xenopus laevis XTC cells (Xenopus laevis)
[2] = target: focal adhesion in fixed and permeabilized Xenopus laevis XTC cells (Xenopus laevis)
[3] = target: intermediate filament in fixed and permeabilized Xenopus laevis XTC cells (Xenopus laevis)

Substance: APC fragment (amino acid residues 2536-2843 of sequence number 14), EGFP-3xFLAG fused at the C terminus
- half-life [1]: 0.1 s

Substance: APC fragment (amino acid residues 2781-2819 of sequence number 14), FLAG-EGFP fused at the N terminus
- half-life [1]: 0.027 s

Substance: CLIP-170 fragment (amino acid residues 3-309 of sequence number 12), FLAG-EGFP fused at the N terminus
- half-life [1]: 0.044 s

Substance: MAP4 fragment (amino acid residues 1-908 of sequence number 4), FLAG-EGFP fused at the N terminus
- half-life [1]: 0.109 s

Substance: MAP4 fragment (amino acid residues 659-908 of sequence number 4), FLAG-EGFP fused at the N terminus
- half-life [1]: 0.106 s

Substance: Paxillin fragment (amino acid residues 54-498 of sequence number 15), FLAG-EGFP fused at the N terminus
- half-life [2]: 0.091 s

Substance: Paxillin fragment (amino acid residues 54-557 of sequence number 15), FLAG-EGFP fused at the N terminus
- half-life [2]: 0.246 s

Substance: Paxillin fragment (amino acid residues 167-557 of sequence number 15), FLAG-EGFP fused at the N terminus
- half-life [2]: 0.138 s

Substance: Paxillin full length (FL) (full length of sequence number 15, residues 1-557), FLAG-EGFP fused at the N terminus
- half-life [2]: 0.196 s

Substance: Plectin-1 fragment (amino acid residues 3777-4313 of sequence number 8), FLAG-EGFP fused at the N terminus
- half-life [3]: 0.052 s

Substance: Plectin-1 fragment (amino acid residues 3777-4364 of sequence number 8), FLAG-EGFP fused at the N terminus
- half-life [3]: 0.059 s

Substance: Plectin-1 fragment (amino acid residues 3777-4684 of sequence number 8), FLAG-EGFP fused at the N terminus
- half-life [3]: 0.457 s

Substance: Plectin-1 fragment (amino acid residues 4022-4364 of sequence number 8), FLAG-EGFP fused at the N terminus
- half-life [3]: 0.103 s

Substance: Plectin-1 fragment (amino acid residues 4066-4364 of sequence number 8), FLAG-EGFP fused at the N terminus
- half-life [3]: 7.7 s

Substance: Tau isoform 3 (full length of sequence number 5, residues 1-383), FLAG-EGFP fused at the N terminus
- half-life [1]: 0.11 s

Substance: Tau isoform 4 (sequence number 6, residues 1-352), FLAG-EGFP fused at the N terminus
- half-life [1]: 0.06 s

Substance: phosphatidylinositol-(4)-phosphate 5-kinase type Iγ-90 (PIPKIγ) fragment (641-668) (sequence number 18), N terminus tagged with FLAG-EGFP
- half-life [2]: 0.496 s

From patent US10858688
